Laboratory results from the nanobody polyreactivity screen of Harvey et al. (2022).

Test: yeast display, Sf9 membrane polyspecificity reagent, FACS + sequencing; frameworks hold sequencing errors
Summary of the method: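 Genes from sorted yeast were amplified by colony PCR, read by MiSeq 2 × 250 sequencing and filtered on CDR length. These cells carried a synthetic nanobody library in Saccharomyces cerevisiae BJ5465 and were sorted by FACS into low and high (top ~1%) gates on anti-HA and streptavidin fluorescence. Polyreactivity is labelled according to the gate of origin.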

Sequence	polyreactivity (PSR sort gate)
QVQLVESGGGLVQAGGSLRLSCAASGSIFVRNAMGWYRQAPGKERELVAAITYRGGSTYYADSVKGRFTISRDNAKNTVYFQMNSLKPEDTAVYYCFDVNTDVLSRVYRGWGYYYWGQGTQVTVSS	low polyreactivity
QVQLVESGGGLVQAGGSLRLSCAASGFIFWSYAMGWYIQAPGKERELVAAINTSGDSTYYADSVKGRFTISRDNAKNTVYLQMNSLKPEDTAVYYCAAKSSTRGDYWGQGTQVTVSS	low polyreactivity
QVQLVESGGGLVQAGGSLRLSCAASGSIFYYYAMGWYRQAPGKERELVASITSGGRTYYADSVKGRFTISRDNAKNTVYFQMNSLKPEDTAVYYCAAVYGGLTLTRNYNWGQGTQVTVSS	high polyreactivity
QVQLVESGGGLVHAGGFLRLSCAASGRIFRWNAMGWYRQAPGKERELVAAISWNGGRTYYADSVKGRFTISRDNAKNRVYFQMNSLKPEDTAVYYCAAPHSVPDLHSGDYWGQGTQVTVSS	low polyreactivity
QVQLVESGGGLVQAGGSLRLSCAASGRTIRHNAMGWYRQARGKERELVGAISRSGGATYYADSVKGRFTISRDNAKNTVYLQMNSLKPEDTAVYYCAAGYHIIYTPEYYYWGQGTQVTVSS	high polyreactivity
QVQLVESGGGLVQAGGSLRLSCAASGRTFDGNVMGWYRQAPGKERELVAAITASGGRTYYADSVKGRFTISRDNAKNTVYLQMNSLKPEDTAVYFCAADPTYLRTLRFGSYDYWGQGTQVTVSS	high polyreactivity
QVQLVESGGGLVQAGGSLRLSCAASGFQYGMGWYRQAPGKERELVAAISRDGSTNYADSVKGRFTISRDNAKNTVYLQMNSLKPEDTAVYYCAVDFYFLYGWGQGTQVTVSS	low polyreactivity
QVQLVESGGGLVQAGGSLRLTCAASGLIFPRYAMGWYRQAPGKERELVAAISRRGGSTRYADSVKGRFTISRDNAKNTVYLQMNSLKPEDTAVYYCAAPDFPKYYPTAYLQADEYWGQGTQVTVSS	high polyreactivity
QDQLVETGGGLVQAGGSLRLSCAASGRIFAYNSMGWYRQAPGKERELVAAISWSGSSTYYADSVKGRFTISRDNAKNTVYLHMNCLKPEDTAVYYCAATPWYYYSTSYAYYYWGQGTQVTVSS	high polyreactivity
QVQLVESGGGLVQAGGSLRLSCAATGSIFSRYAMGWYRQAPGKERELVAAISWRGGGTYYADSVKGRFTISRDNAKNTVYLQMNSLKPVDTAVYYCAADDTPDDSDYWGQGTQVTVSS	low polyreactivity
QVQLVESGGGLVQAGGSLRLSCAASGITFYPYTLGWYRQAPGKERELVASISTSGTNYADSVKGRFTISRDNAKNTVYLQMNSLKPEDTAVYYCAADIWSYYRSTHVDSWGQGTQVTVSS	low polyreactivity
QVQLVESGGGLVQAGGSLRLSCAASGRTLPGYVMGWYRQEPGKERELVSTISSGDRTNYADSVKGRFTISRDNAKNTVYLQMNSLKPEETAVYYCAAPYVASGYYIWSPWLYDSWGQGTQVTVSS	low polyreactivity
QVQLVESGGGLVQAGGSLRLSCAASGRTFTHYAMGWYRQAPGKERELVAAISSGGGTYYADSVKGRFTISRDNAKNTVYLQMNSLKPEDTAVYYCNADYTNYHDPFRTYGYWGQGTQVTVSS	low polyreactivity
QVQLVESGGGLVQAGGSLRLSCAASGFTFYRYTMGWYRQAPGIYRELVAAISSGDSTYYADSVKGRFTISRDNAKNTVYLQMNSLKPEDTAVYYCAARQYSRGAIVYYWGQGTQVTVSS	high polyreactivity
QVQLVESGGGLVQAGGSLRLSCAASGSIFVFNAMGWYRQAPGKERELVAAITSGGRTYYADSVKGRFTISRDNAKNTVYLQMNSLKPEDTAVYYCAAEFWFFAGWAYEYWGQGTQVTVSS	high polyreactivity
QVQLVESGGGLVQAGGSLRISCAASGRIFGTNAMGWYRQAPGKERELVADITSGGSTNYADSVKGRFTISRDNAKNTVYLQMNSLKPEDTAVYYCAAVVIGDLRWYRDEYWGQGTQVTVSS	low polyreactivity
QVQLVESGGRLVQAGGSLRLSCAASGIIFYVYAMGWYRQAPGKERELVAAISSSGGSTYYADSVKGRFTISRDNAKNTVYLQMNSLKPEDSAVYYCAAVSSGYDDWGQGTQVTVTS	high polyreactivity
QVQLVESGGGLVQAGGSLRLSCAASGSTFSRNAMGWYRQAPGKERELVAAISRRGGSTYYADSVKGRFTISRDNAKNTVYLQMNSLKPEDTAVYYCNRDSSYKNNYDYWGQGTQVTVSS	high polyreactivity
QVQLVESGGGLVQPGGSLRISCAASGSTFEYYAMGWYRQAPGKERELVAAITGSGGSTNYADSVKGRFTISRDNAKNTVYLQMNSLKPEDTAVYYCAADVYDAGVRYDYWGQGTQVTVSS	high polyreactivity
QVQLVESGGGLVQAGGSLRLSCAASGRIFNKYVMGWYRQAPGKERELVAAISGRGGSTYYADYVKGRFTISRDNAKNTVYLQMNSLKPEDTAVYYCAARYGYYTSDYKYYDWGQGTQVTVSS	high polyreactivity
QVQLVESGGGLVQAGGSLRVSCAASGFTFDYYAMGWYRQAPGKEWEFVAAISSRGDDTYYADSVKGRFTISRDNAKNTVYLQMNSLKPEDTAVYYCAKVWRYGRYEYGYWGHGTQVTVSS	high polyreactivity
QVQLVESGGGLVQAGGSLRLSCAASGSIFFPNPLGWYRQAPGKERELVDAISWSGDSSYADSVKGRFTISRDNAKNTVYLQMNSLKPEDTAVYYCAAVYLWWSYEFDYWGQGTQVTVSS	low polyreactivity

Sequence	polyreactivity (PSR sort gate)
LVQHVQSGGGLVQAGGSLRVSCAASGPTLDSNAMGWYRQAPGKERELVAAISSAGSTNYPDSVKGRFTISRDNAKNTVYLQMNSLKPEDTAVYYSAADLIGSHDYWGQGTQVTVSS	low polyreactivity
QVQLVESGGGLVQAGGSLRLSCAASGSTFSVYAMGWYRQAPGKERELVATISWGGGITYYADSVKGRFTISRDNAKNTVYLQMNSLKPEDTAVYYCAKELYSWLPGYRCEGTMDYWGQGTQVTVSS	high polyreactivity
QVQLVESGGGLVQAGGSLRLSCADSGFTFSLNTMGWYRQAPGKERELVAAINSGDSTYADSVKGRFTISRDNAKNTVYLQMNSLKPEDTAVYYCNADPDWWYPYIYWGQGTQVTVSS	low polyreactivity
QVQLVESGGGLVQAGGSLRLSCAASGFIFNFYAMGWYRQAPGKERELVAAISRNGGSTYYADSVKGRFTISRDNAKNTVYLQMNSLKPEDTAVYYCNAVGSYGDFGYWGQGTQVTVSS	high polyreactivity
QVQRVESGGGLVQAGGSLRLSCAASGLTFEYNAMGWYRQAPGKEREFVATISNGGITSYADSVKGRFTISRDNAKNTVYLQMNSLKPEDTGVYYCAASYADSPTTDQLWLEYDSWGQGTQVTVSS	low polyreactivity
QVQLVESGGGLVQAGGSLRLSCAASGFTFYYYAMGWYRQAPGKERELVAAISTRDGNTYYADSVKGRFTISRDNAKNTVYLQMNSLKPEDTAVYYCAADYFRYYPYDYSGQGTQVTVSS	low polyreactivity
QVQLVESGGGLVQAGGSLRLSCAASGRIFSPNAMGWYRQAPGKERELVAAITRGGSTNYADSVKGRFTISRDNAKNTVYLQMNSLKPEDTAVYYCAAQLAKTIRGRGYNSWGQGTQVTVSS	low polyreactivity
QVQLVESGGGLVQAGGSLRLSCAASGRIFNSYAMGWSRQAPGNERELVAAISSGGSTYYADSVKGRFTISRDNAKNTVYLQMNSLKPEDTAVYYCAARIWTGRGRKLGYGYDYWGQGTQVTVSS	low polyreactivity
QVQLQESGGGLVQAGGSLRLSCAASGYISYFVGMGWYRQAPGKEREFVASIADGSYTYYADSVKGRFTISRDNAKNTVYLQRNSLKPEDTAVYYCAVEDSWTYRFDYWGQGTQVTVSS	high polyreactivity
QVQLVESGGGLVQAGGSLRLSCAASGRTFWWYAMGWYRQAPGKERELVAAITQSGGSTFYADSVKGRFTISRDNAKNTVYLQMNSLKPEDTAVYYWGQGTQVTVSS	low polyreactivity
QVQLVESGGGLVQAGGSLRLSCAASGSTFAKYAMGWYRQAPGKERELVAVITSGGSTYYADSVKGRFTISRDNAKNTVYLQMNSLKPEDTAVYYCAAAVRAWARRYDYWGQGTQVTVSS	high polyreactivity
QVQQQESGGGLVQAGGSQRLSCAASGTSLNSLCMGWYRQAPGKRREFVASITWGTTTNYAESVKGRFTISRDNANNTVYPQMNSLKPEDTAVYYCAAPPFGDSSYHYWGQGTQVTVSS	low polyreactivity
QVQLVESGGGLVQAGGSLRLSCAASGSNFFSYAMGWYREAPGKERELVAAIDYSGGGTYYADSVKGRFTISRDNAKNTVYLQMNSLKPEDTAVYYCNSDTEVWADTFISYRALNYWGQGTQVTVSS	low polyreactivity
QVQLVDSGGGLVQAGCSLRLSCAASGSTFVTNDMGWSRKAPGKERELVAAISSGTSTNYADSVKGRFTISRDNAKNTFYLQMNSLNPEDTAVYYCAADSLKRDDYWGQGTQVTVSS	low polyreactivity
QVQLVDSGGGLVQAGGSLRLISAASGLIFSWYDKGWYRQAPGKERELVAAITTDGDDTYYADSVKGRFTISRDNAKNTVYLQMNSLKPDDTAVYYCAADSELGIRYPDRDYDSWGLGTQVTVSS	low polyreactivity
QVQLVESGGGLVQAGGSLRLSCAASGRTFKHYAMGWYRPAPGKERELVAAITSGGSTYYADSVKGRFTISRDNAKNTVYLQMNSLKPEDTAVYYCNKESYFDTYRRYDSWGQGTQVTVSS	low polyreactivity
QVQLVDSGGGLVQAGGSLRLSCAASGFTIVHNAMGWYRQAPGKERELVAAISSSGGRTYYADSVKGRFTISRDNAKNTVYLQMNSLKPEDTAVYYCNARGYRGYDYWGQGTQVTVSS	high polyreactivity
QVQLVESGGGLVQAGGSLRLSCAASGRTFGHNAMGRYRQAPGKEREFVAAITRRGGSTYYADSVKGRFTISRDNAKNTVYLQMNSLKPEDTAVYYCATRDYVNGPGIFNYWGQGTQVTVSS	low polyreactivity
QVQLVESGGGLVQAGGSLRLSCAASGRIFVVYAMGWYRQAPGKERELVASITWRGGSTYYADSVKGRFTISRDNAKNTVYLQMNSLKPEDTAVYYCAARYARYLLYDYWGQGTQVTVSS	low polyreactivity
QFQLVESGGGLVQAGGSLRLSCAASGGIFYTYAMGWYRQAPAKERAFVAAISRSGGRTRYADSVKGRFTISRDNAKNTVYLQMNSLKQEDTAVYYCAARVIGAGLLKYDKWGQGTQVTVSS	high polyreactivity
QVQLVESGGGLVQAGGSLRLSCAASGSIFRSYAMGWYRQAPGKERELVAAISRRGGSTYYADSVKGRFTISRDNVKNTVYLQMNSLKPEDTAVYYCAADRTGPYDYWGQGTQVTVSS	high polyreactivity
